Measurements published in US7968762.

Biological target: human Met receptor (human) (UniProt P08581)
Experiment: cell-based or functional assay

Chain of UniProt P08581 (P08581 25-1390): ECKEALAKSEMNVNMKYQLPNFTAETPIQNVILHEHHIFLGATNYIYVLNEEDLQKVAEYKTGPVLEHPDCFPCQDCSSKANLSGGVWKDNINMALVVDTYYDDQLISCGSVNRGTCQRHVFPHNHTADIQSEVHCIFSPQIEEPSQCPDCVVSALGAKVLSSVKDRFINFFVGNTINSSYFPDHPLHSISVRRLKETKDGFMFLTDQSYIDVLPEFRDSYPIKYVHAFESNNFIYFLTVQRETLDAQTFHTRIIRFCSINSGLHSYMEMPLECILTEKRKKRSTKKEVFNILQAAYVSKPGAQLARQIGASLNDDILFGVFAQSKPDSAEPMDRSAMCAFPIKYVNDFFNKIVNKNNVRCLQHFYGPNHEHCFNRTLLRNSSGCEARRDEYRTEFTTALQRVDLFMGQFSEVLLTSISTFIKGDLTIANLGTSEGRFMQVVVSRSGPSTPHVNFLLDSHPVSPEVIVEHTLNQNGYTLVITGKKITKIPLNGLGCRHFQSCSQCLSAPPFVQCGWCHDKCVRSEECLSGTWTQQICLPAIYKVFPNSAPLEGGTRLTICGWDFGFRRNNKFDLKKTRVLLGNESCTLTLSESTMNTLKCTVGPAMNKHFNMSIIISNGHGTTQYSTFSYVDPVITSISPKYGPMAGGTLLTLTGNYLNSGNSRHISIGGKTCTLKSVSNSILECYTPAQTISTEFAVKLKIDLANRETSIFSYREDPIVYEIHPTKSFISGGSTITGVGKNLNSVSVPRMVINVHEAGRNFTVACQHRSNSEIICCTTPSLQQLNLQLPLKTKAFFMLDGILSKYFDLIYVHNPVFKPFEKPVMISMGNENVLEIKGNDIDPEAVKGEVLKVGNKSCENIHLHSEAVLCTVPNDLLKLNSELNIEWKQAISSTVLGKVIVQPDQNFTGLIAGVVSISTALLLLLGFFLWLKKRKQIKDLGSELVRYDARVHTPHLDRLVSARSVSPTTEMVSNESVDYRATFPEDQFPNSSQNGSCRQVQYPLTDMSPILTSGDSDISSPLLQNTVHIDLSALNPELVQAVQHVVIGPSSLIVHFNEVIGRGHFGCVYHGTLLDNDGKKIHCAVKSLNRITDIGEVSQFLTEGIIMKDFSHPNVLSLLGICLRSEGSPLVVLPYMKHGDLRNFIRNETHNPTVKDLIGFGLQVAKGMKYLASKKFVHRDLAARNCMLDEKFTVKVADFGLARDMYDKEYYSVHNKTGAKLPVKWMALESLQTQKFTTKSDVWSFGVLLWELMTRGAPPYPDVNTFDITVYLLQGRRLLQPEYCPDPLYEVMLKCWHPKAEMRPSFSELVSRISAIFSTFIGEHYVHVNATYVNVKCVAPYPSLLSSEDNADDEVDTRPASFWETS

growth of subcutaneous SK-LMS-1 (high Met) xenografts in hHGF Tg scid mice against control scid mice: 3 fold
Substance: human hepatocyte growth factor/scatter factor (hHGF/SF) (from UniProt P14210 32-728) (ligand)
